Test results taken from US20200048649A1 (CENTRE NATIONAL DE LA RECHERCHE SCIENTIFIQUE, published 2020).

Tests used:
[1] = target: T1, TRCP VLP (virus-like particle of GFLV CP fused at its N-terminus to TagRFP) (Grapevine fanleaf virus isolate F13 (CP …)); assay: dynamic light scattering; TRCP VLP alone 32.0 nm±2 nm
T1 construct: also called TRCP VLPs; VLP-TRCP

[2] = target: T1, TRCP VLP (virus-like particle of GFLV …); assay: microscale thermophoresis in solution, fluorescent TRCP VLP constant, nanobody titrated, 1:1 model, n=3; SD ±2.91
[3] = target: T2, Grapevine fanleaf virus (GFLV) isolate F13 particles (capsid made of the coat protein, CP) (Grapevine fanleaf virus isolate F13, UniProt P18474 606-1109)
T2 sequence: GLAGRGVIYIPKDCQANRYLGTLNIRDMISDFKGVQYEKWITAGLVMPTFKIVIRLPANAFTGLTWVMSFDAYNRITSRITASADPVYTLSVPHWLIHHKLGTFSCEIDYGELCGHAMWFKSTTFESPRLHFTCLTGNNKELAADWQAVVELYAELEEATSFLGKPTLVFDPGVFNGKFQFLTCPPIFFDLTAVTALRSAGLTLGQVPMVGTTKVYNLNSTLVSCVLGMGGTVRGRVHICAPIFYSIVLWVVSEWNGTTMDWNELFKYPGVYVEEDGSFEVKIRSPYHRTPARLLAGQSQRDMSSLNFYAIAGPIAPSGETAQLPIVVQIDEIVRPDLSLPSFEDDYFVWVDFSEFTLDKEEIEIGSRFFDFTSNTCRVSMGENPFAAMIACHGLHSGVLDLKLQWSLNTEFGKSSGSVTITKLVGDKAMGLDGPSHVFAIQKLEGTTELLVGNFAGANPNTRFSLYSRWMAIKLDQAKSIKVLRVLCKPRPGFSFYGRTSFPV

[4] = target: T2, Grapevine fanleaf virus (GFLV) isolate …; assay: competitive ELISA on coated GFLV, legend of FIG. 19a
[5] = target: T2, Grapevine fanleaf virus (GFLV) isolate …; assay: DAS-ELISA on infected leaves, capture Ab Bioreba, detection Nbp75:ALP
[6] = target: T1, TRCP VLP (virus-like particle of GFLV …); assay: microscale thermophoresis in solution, fluorescent TRCP VLP constant, nanobody titrated, 1:1 model, n=3; SD ±13.63
[7] = target: T2, Grapevine fanleaf virus (GFLV) isolate …; assay: DAS-ELISA on infected leaves, capture by Ab BIOREBA, detection by Nb:ALP
[8] = target: T1, TRCP VLP (virus-like particle of GFLV …); assay: microscale thermophoresis in solution, fluorescent TRCP VLP constant, nanobody titrated, 1:1 model, n=3; SD ±3.37

B1: Nanobody Nb23 (VHH)
VHH: QVQLQESGGGSVQVGGSLRVACAASGDTFSGYLAAWFRQAPGKGREGVAAINSKRHTTSYADSVKGRFTISKDNADNIMYLEMNSLKPEDTAIYYCAAADAIGLAEYWSTPTLSAARYKYWGQGTQVTVSS
- particle diameter of the VLP saturated with the nanobody (DLS) [1]: 37.8 nm
- Kd [2]: 9.13 nM

B2: Nb23 fused to EGFP (VHH)
VHH: B1 VHH
- particle diameter of the VLP saturated with the nanobody (DLS) [1]: 43.8 nm

B3: Nb122 fused to alkaline phosphatase (VHH)
chain: MAQVQLQESGGGSVQGGGSLRLSCAVSGYRFSSYAMAWFRQAPGKEREAVAAYYRGFGGAQHSTHYAASVTGRFTITQNDALNTGYLQMNNLKPEDTAMYYCALSTADDDDWHSLRRYNYWGQGTQVTVSSGGGSGGGVKQSTIALALLPLLFTPVTKARTPEMPLQTQATSREEPPRLPSKHRPGVKTQATSREEPPRLPSKHRPGVKTQATSREEPPRLPSKHRPGVKTQATSREEPPRLPSKHRPGVKTQATSLEVLENRAAQGDITAPGGARRLTGDQTAALRDSLSDKPAKNIILLIGDGMGDSEITAARNYAEGAGGFFKGIDALPLTGQYTHYALNKKTGKPDYVTDSAASATAWSTGVKTYNGALGVDIHEKDHPTILEMAKAAGLATGNVSTAELQDATPAALVAHVTSRKCYGPSATSEKCPGNALEKGGKGSITEQLLNARADVTLGGGAKTFAETATAGEWQGKTLREQAQARGYQLVSDAASLNSVTEANQQKPLLGLFADGNMPVRWLGPKATYHGNIDKPAVTCTPNPQRNDSVPTLAQMTDKAIELLSKNEKGFFLQVEGASIDKQDHAANPCGQIGETVDLDEAVQRALEFAKKEGNTLVIVTADHAHASQIVAPDTKAPGLTQALNTKDGAVMVMSYGNSEEDSQEHTGSQLRIAAYGPHAAHHHHHH
- EC50 (read off the curve) [3]: ~10000 nM

B4: Nb23 fused to bacterial alkaline phosphatase (VHH)
chain: QVQLQESGGGSVQVGGSLRVACAASGDTFSGYLAAWFRQAPGKGREGVAAINSKRHTTSYADSVKGRFTISKDNADNIMYLEMNSLKPEDTAIYYCAAADAIGLAEYWSTPTLSAARYKYWGQGTQVTVSSGGGSGGGVKQSTIALALLPLLFTPVTKARTPEMPLQTQATSREEPPRLPSKHRPGVKTQATSREEPPRLPSKHRPGVKTQATSREEPPRLPSKHRPGVKTQATSREEPPRLPSKHRPGVKTQATSLEVLENRAAQGDITAPGGARRLTGDQTAALRDSLSDKPAKNIILLIGDGMGDSEITAARNYAEGAGGFFKGIDALPLTGQYTHYALNKKTGKPDYVTDSAASATAWSTGVKTYNGALGVDIHEKDHPTILEMAKAAGLATGNVSTAELQDATPAALVAHVTSRKCYGPSATSEKCPGNALEKGGKGSITEQLLNARADVTLGGGAKTFAETATAGEWQGKTLREQAQARGYQLVSDAASLNSVTEANQQKPLLGLFADGNMPVRWLGPKATYHGNIDKPAVTCTPNPQRNDSVPTLAQMTDKAIELLSKNEKGFFLQVEGASIDKQDHAANPCGQIGETVDLDEAVQRALEFAKKEGNTLVIVTADHAHASQIVAPDTKAPGLTQALNTKDGAVMVMSYGNSEEDSQEHTGSQLRIAAYGPHAAHHHHHH
- particle diameter of the VLP saturated with the nanobody (DLS) [1]: 40 nm

B5: Strep-tagged Nb125 (VHH)
VHH: QVQLQESGGGSVQAGGSLRLSCAASGYTYSMYCMAWFRQAPGKEREGVAAINSGNRSTYYADSVKGRFTISQDNAKNTVYLIMNSLKPEDTAIYYCAADPQRCGSWTWANMYEYNYWGQGTQVTVSS
- binding result [4]: binds

B6: Strep-tagged Nbp75 (VHH)
VHH: QVQLQESGGGSVQAGGSLRLSCVASEYPSSSTAMAWFRQAPGKEREGVAAINSVRHTTSYADSVKGRFTISKDNADNMMYLEMNSLKPEDTAIYYCAAADAIGLAEYWSTPTLSAARYKYWGQGTQVTVSS
- binding result [4]: binds

B7: Nbp75 fused to alkaline phosphatase (VHH)
VHH: B6 VHH
- binding result [5]: binds

B8: Nanobody Nb122 (VHH)
VHH: QVQLQESGGGSVQGGGSLRLSCAVSGYRFSSYAMAWFRQAPGKEREAVAAYYRGFGGAQHSTHYAASVTGRFTITQNDALNTGYLQMNNLKPEDTAMYYCALSTADDDDWHSLRRYNYWGQGTQVTVSS
- Kd [6]: 34.5 nM

B9: Strep-tagged Nb122 (VHH)
VHH: B8 VHH
- binding result [4]: binds

B10: Nbp59 fused to alkaline phosphatase (VHH)
VHH: QVQLQESGGGTVQAGGSLRLSCSISGDTSNSYCMGWFRQAPGKEREVVAHISTGVISPGYNKFSEGRFTISPDNAKNSVYLQMNNLKPDDTAMYYCAARTGYCSGSWGVADSFNGWGQGTQVTVSS
- binding result [7]: binds

B11: Nanobody Nbp59 (VHH)
VHH: B10 VHH
- Kd [8]: 12.6 nM

B12: Strep-tagged Nbp59 (VHH)
VHH: B10 VHH
- binding result [4]: binds
